Test results: publication PMC10229695

What was measured:
NLRP3 WT (human) = assay: competition pulldown (streptavidin beads, western blot); settings: elution from biotinylated mtDNA beads, EMSA and pulldown: 50 mM Tris pH 7.4, 100 mM NaCl, 2 mM MgCl2, 12% glycerol, 4 C overnight (EMSA plus 2e-5 mg/ml salmon sperm DNA, 1e-5 uM ox-mtDNA), Fig …
[1] = test system: NLRP3 L266F (NOMID, C790T) (human); assay: as above; settings: elution from biotinylated mtDNA beads; oxidized guanine (8-oxoguanine); EMSA and pulldown: 50 mM Tris pH 7.4, 100 mM NaCl, 2 mM MgCl2, 12% glycerol, 4 C overnight (EMSA plus 2e-5 mg/ml salmon sperm DNA, 1e-5 uM ox-mtDNA); Fig …

## ox-mtDNA competitor (unlabeled)
NLRP3 WT (human); poor fit, R2 0.6, text prints 247 nM, oxidized guanine (8-oxoguanine)
  IC50: 247 nM
[1]
  IC50: 8.1 nM

## non-oxidized mtDNA competitor (unlabeled)
NLRP3 WT (human); R2 0.98, abstract prints 4 nM
  IC50: 4.8 nM
